# Source: patent US20200093909A1 (INSTITUTE FOR RESEARCH IN BIOMEDICINE, published 2020)
# Positions count from the first letter of the chain named.
# T1: 22-110-peptide (Plasmodium falciparum)
# T1 construct: N-terminal CSP peptide coated at 1 ug/mL in ELISA
# T1 peptide: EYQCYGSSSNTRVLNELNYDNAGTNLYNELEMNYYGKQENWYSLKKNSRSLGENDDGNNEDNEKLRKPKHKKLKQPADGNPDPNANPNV
# T2: NPDP-peptide (Plasmodium falciparum)
# T2 peptide: KQPADGNPDPNANPNKNN
# T3: NANP-peptide (Plasmodium falciparum)
# T3 construct: CSP repeat peptide coated at 2 ug/mL in ELISA; also called NANP repeat region peptide
# T3 peptide: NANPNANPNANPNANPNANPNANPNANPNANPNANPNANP
# B1: MGG8 (antibody, V domains shown)
# VH: EVQLVESGGGLVQPGGSLKLSCAASGFMISGSVLHWVRQASGKGLEWLGRIRDKANNEATAYAASVKGRFTISRDDSKDTTYLQMNSLRIEDTAVYYCTRGIIVGDTWHFDPWGQGTLVTVSS
# VL: DIVMTQTPLSLSVTPGQTASISCKSSESLLRSDGKTYLYWYLQKPGQSPQLLMYEVSKRFSGVPDRFSGSGSGTDFTLKISRVETDDVGIYYCMQSIQLVTFGQGTKVEIK
# B2: MGU3 (antibody, V domains shown)
# VH: EVLLVESGGGLVQPGGSLRLSCAASGFTFSDYNMHWVRQAPGKGLEWLSYISHSSSTTYYADSVRGRFTISRDNAKNSLYLQMNSLRAEDTAVYYCARLRPLSYSGRYRDYWGQGTLVTVSS
# VL: DIQMTQSPSSLSASVGDRVTITCQASQDVSNYVNWYQQKPGKAPKVLIYDASTLQTGVPSRFSGSGSGTDFTFSISSLQPEDIATYYCQQYDSLPLTFGGGTKVEIK
# B3: MGH1 (antibody, V domains shown)
# VH: QVQLVQSGAEVKKPGASVRVSCKTSGYTFTDYYVHWVRQAPGHGLECMGWINPYIGVSKYAQKFQGRVTLTRDTSISTAYMEISRLTSDDTAVYYCAACSNVGCYVYWGQGSLVTVSS
# VL: DVVMTQSPLSLPVTLGQPASISCRSSQSLVYSDGNTYLNWFQQRPGQSPRRLIYKVSNRDSGVPDRFSGSGSGTDFTLKISRVEAEDVAIYFCMQGTHWPDTFGQGTKLEIK
# B4: MGG1 (antibody, V domains shown)
# VH: EVQLVESGGGVVRPGGSLRLSCAASGFTFDDYAMSWVRQAPGKGLEWVSGINWNGGSTGYADSVKGRFTISRDNAKNSLYLQMNSLRAEDTALYHCARLGRAAREYYYYYMDVWGKGTTVTVSS
# VL: QSVLTQPPSVSAAPGQKVTISCSGSSSNIGNNYVSWYQQLPGTAPKLLIYDNNKRPSGIPDRFSGSKSGTSATLGITGLQTGDEADYYCGTWDSSLSAGVFGGGTKLTVLG
# B5: MGU1 (antibody, V domains shown)
# VH: QVQLVESGGGVVQPGRSLRLSCAASGFAFSSYGMNWVRQAPGKGLEWVAVIWHDGTNKYYRDSVKGRFIISRDNAKNTLYLQMDSLSAEDTAMYYCAIWYLDSPDHGFDIWGRGTMVTVSS
# VL: QLVLTQSPSASASLGVSVTLTCTLNNGHSSNAIAWHQQQPGKGPRYLMKVNSDGSHNKGAAVPDRFSGSSSGTERHLTISSLQSDDEADYYCQAWDSGIWVFGGGTKLTVL
# B6: MGG2 (antibody, V domains shown)
# VH: EVQLVESGGGLVQPGGSLRLSCAASGFTLNNYWMHWVRQAPGKGLVWVAHINIDGSTTTYADSVKGRFTISRDNAKNTLYLQMNSLRAEDTAVYYCAKGSIKAGGFWSGYSNWFDPWGQGTLVTVSS
# VL: QAVVTQEPSLTVSPGGTVTLTCDSDPGPVTSGHYPYWFQQKPGQVPRTLIYDTSNKHSWTPARFSGSLLGGKAALTLSGAQPEDEADYYCLLSYGGAPVFGGGTKLTVL
# B7: MGV3 (antibody, V domains shown)
# VH: EVQVVESGGDLVQPGGSLRLSCAVYGFTVSDSYMSWVRQAPGKGLEWVSVIYSGSSTYYIDSVKGRFTISRDRSKNTLYLQMNTLRVEDTALYYCARGPNDYRNRKYYYYMDVWGKGTAVTVSS
# VL: EIVLTQSPDTLSLSAGERVTLSCRASQSVDSPYLAWYQQRPGQTPRLLIFGASIRATDIPDRFSGGGSGTDFTLTISRLEPEDSGVYYCHQYGNAPYIFGQGTKLEIK
# notes: also called biotin-labeled MGV3; biotinylated MGV3
# B8: MGG3 (antibody, V domains shown)
# VH: QEQLVESGGGVVQPGKSLRLSCAASGFTFSTFGMHWVRQAPGKGLEWVAVIWYDGSSKYHADSVKGRFTISRDNSKSTLYLQMNSLRAEDTAMYYCVKVGANWGWRYFDLWGRGTLVTVSS
# VL: DIVMTQTPLSLSVTPGQPASISCKSSQSLLHSDGNTYLSWYLQKPGQSPQLLIYEVSSRFSGVPDRFSGSGSGTDFTLKISRVEADDVGVYYCMQGIHSWTFGQGTKVEIK
# B9: MGU5 (antibody, V domains shown)
# VH: QVQLVESGGGVVQPGRSLRLSCAASGFSFSSYGMHWVRQAPGKGLDWVALIWHDGTNKFYTDSVKGRFTISRDNSKDTLFLQMNSLRVEDTAVYYCTKRAGWGDALDIWGQGTMVTVSS
# VL: DIQMTQSPSSLSASVGDRVTITCQASQDISNYLNWYQQKPGKAPKLLIYDASNLETGVPSRFSGSGSATDFTLTISSLQSEDIATYYCQQQRIFGGGTKVEIK
# B10: MGU8 (antibody, V domains shown)
# VH: QVQLVESGGGVVQPGRSLRLSCAAGGFTFSNYGMHWVRQAPGKGLEWVALIWHDGTNKFYADSVKGRFTISRDNSKNTLSLQMDSLTTEDTAIYFCTKRGGWGDGSDIWGQGTMVTVSS
# VL: B9 VL with I29V, S30D, Q38H, E55A, A68S, E81D, I83F, K99R
# B11: MGH2 (antibody, V domains shown)
# VH: QVQLVESGGGVVQPGGSLRLSCTASGFSFSSYAMHWVRQAPGKGLEWVAYTRYDGSNKFYLDSVQGRFTISRDNSKNTLYLEMDSLRLEDTAVYFCAKVGDGTVAGTIDYWGQGTLVTVSS
# VL: YIVMTQSPLSLPVTLGQPASISCRSSQSLVYSDGNTYLNWYQQRPGQSPRRLIYKVSNRDSGVPDRFSGSGSGTDFTLKISRVEAEDVGVYYCMQGTHWWTFGQGTKVEIK
# B12: MGU12 (antibody, V domains shown)
# VH: QVQLVESGGGVVQPGRSLRLSCAASGFSFSSYGMHWVRQAPGKGPEWVAVIWHDGSYSYYADSVRGRFTISRDNSKNTLYLQMNSLRPEDTGMYHCVKVEDYVRGSSHGGAFHIWGQGTMVTVSS
# VL: DIQMTQSPSTLSASVGDRVTITCRASQTINNWLAWYQWKPGKAPELLIYKASSLESGVPSRFSGSGSGTEFTLTISSLQPDDFATYYCQQYSSYWTFGQGTKVDIK
# B13: MGG4 (antibody, V domains shown)
# VH: QVQLVESGGGVVQPGRSLRLSCAASGFRFSDYGMHWVRQAPGKGLEWVALIWYDGSNESYLDSVKGRFTISRDNSKNTLYLQMNNLRTEDTAVYYCAKLLVGITTDVFDVWGQGTVVTVSS
# VL: DIVMTQSPDSLAVSLGERATINCRSSQSVLSSSNNKNYLAWYQHKPRQPPKLLIYWASTRESGVPDRFSGSGSGTDFTLTISSLQAEDVAVYYCQQYYTASPFFGGGTKVEIK
# B14: MGH3 (antibody, V domains shown)
# VH: EVQLVESGGGLVKPGGSLRLSCAASGFTFSSYTMNWVRQAPGKGLEWVSSISSSGSYIYYADSVKGRCTISRDNAKNSLDLQMNSLRAEDAAVYYCARNVLDSSGYPTYFDYWGQGTLVTVSS
# VL: DIVMTQSPLSLPVTPGEPASISCRSSQSLLYSNGYNYLDWYVQKPGQSPRLLIYLGSNRASGVPDRFSGSGSGTDFTLRISRVEAEDVGFYYCMQAVQTPLTFGGGTKVEIK
# B15: MGU10 (antibody, V domains shown)
# VH: QVQLVESGGGVVQPGRSLRLSCAASGFAFSNYGMNWVRQAPGKGLEWVAVIWHDGSLKYYTQSVKGRFTISRDNAKNTLFLQMDSLSADDTAMYYCTVWYLETPDDGFDIWGRGTMVTVSS
# VL: B5 VL with S7P, N25S, N26H, S29T, N31K, N57T, S70T, T73A, L77F, S81N
# B16: MGU11 (antibody, V domains shown)
# VH: QVQLVESGGGVVQPGRSLRLSCVASGFSFSSYGMHWVRQAPGKGLEWVAVIWYDGTNKYYADSVKGRFTISRDNTKNTLYLQMNSLRADDTAMYYCANDIAGWGYDGSNAWGQGTLVTVSS
# VL: LSLPVTPGQPASISCKSSQSLVYSDGNTYLNWFQQRPGQSPRRLIYKVSNRDSGVPDRFSGSGSGTDFTLKISRVEAEDVGVYYCMQGTVGFTFGPGTTVDIK
# Molecular target: T1, 22-110-peptide
# Assay: ELISA, peptide coated, titrated antibody
row,Binder,binding result
1,B1,binds
2,B2,no binding
3,B3,binds
4,B4,binds
5,B5,binds
6,B6,binds
7,B7,binds

# Molecular target: T2, NPDP-peptide
# Assay: ELISA, peptide coated, titrated antibody
Binder,binding result,EC50 [µg/mL]
B1,binds,
B8,,< 0.1
B9,,< 0.1
B10,,< 0.1
B2,no binding,
B3,binds,
B5,binds,
B11,,< 0.1
B6,binds,
B12,,< 0.1
B13,,< 0.1
B7,binds,

# Molecular target: T3, NANP-peptide
# Assay: ELISA, peptide coated, titrated antibody
row,Binder,binding result
1,B1,binds
2,B2,no binding
3,B3,binds
4,B5,binds
5,B14,binds
6,B6,binds
7,B7,no binding

# Molecular target: T4, CSP C-terminal peptide 282-383 (Plasmodium falciparum)
# T4 construct: Coated at 1 ug/ml in ELISA; also called C-terminus of CSP
# Assay: ELISA, C-terminal peptide 282-383 coated at 1 ug/ml
row,Binder,binding result
1,B1,no binding
2,B8,no binding
3,B9,no binding
4,B10,no binding
5,B3,no binding
6,B4,no binding
7,B5,no binding
8,B15,no binding
9,B11,no binding
10,B14,no binding
11,B6,no binding
12,B12,no binding
13,B13,no binding
14,B7,no binding
15,B16,no binding

# Molecular target: T4, CSP C-terminal peptide 282-383
# Assay: ELISA, peptide coated at 1 ug/ml, B cell supernatants from 1/3 to 1/648 dilution
row,Binder,binding result
1,B2,binds
